Test [1] deals with T1, TNFR1.
T1 chain: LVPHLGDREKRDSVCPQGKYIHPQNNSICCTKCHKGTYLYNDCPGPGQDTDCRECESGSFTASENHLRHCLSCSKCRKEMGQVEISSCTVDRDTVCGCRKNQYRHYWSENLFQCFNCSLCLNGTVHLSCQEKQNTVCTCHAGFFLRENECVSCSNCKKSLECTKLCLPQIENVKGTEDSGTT

The target of test [2] is T1, TNFR1.
Test [3] deals with T1, TNFR1.
The target of test [4] is T1, TNFR1. Kind of test: SPR (BIAcore), TNFR1 on CM-5 chip, peptide injected.

Where two headings read alike, the source gives them in different places.

Turning to DEQHLETELH (modifications not checked) [selective TNFR1 antagonist peptide Hydrostatin-SN10], the Kd turned out to be 2800 nM with TNFR1 [1], 2780 nM in the test with TNFR1 [2], 2830 nM in the test with TNFR1 [3] and 2800 nM with TNFR1 [4].

The values are drawn from US20200277355A1.
